Among the data in article PMC12077208 (2025) are Kd values, retold here.

The target in the assay is nuclear translocation factor 2-like (NTF2L) domain of human G3BP1 (human, UniProt Q13283-1 1-138). Kind of assay: ITC.
Chain of nuclear translocation factor 2-like (NTF2L) domain of human G3BP1 (Q13283 other isoform, or with tags, fused parts or gaps): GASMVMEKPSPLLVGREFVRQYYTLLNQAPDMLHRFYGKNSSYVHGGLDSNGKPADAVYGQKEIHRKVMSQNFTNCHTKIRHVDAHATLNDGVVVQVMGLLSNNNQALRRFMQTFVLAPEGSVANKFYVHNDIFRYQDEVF

B1: CHIKV nsP3 peptide CHIKV-43 (residues Glu469-Thr511) (peptide)
chain: GPLGSETFPITFGDFNDGEIESLSSELLTFGDFLPGEVDDLTDSDWSTHHHHHH
The term Kd denotes the constant that tells how readily two partners part at equilibrium. A high value points to a looser complex. The molecule B1 came in with a Kd of 0.078 µM.
For ITFGDFNDGEIESLSSELLTFGDFLP [CHIKV-26 peptide (residues Ile473 to Pro498 of CHIKV nsP3, without the α2 region)], the Kd is 7.8 µM.
